Test results: publication PMC9889268

Molecular target: wild-type ClbP (Escherichia coli CFT073) (UniProt Q0P7K6)
Assay: cryo-EM structure; single-particle cryo-EM of detergent-solubilised ClbP; 10 mM HEPES pH 7.3, 200 mM NaCl, 0.06% GDN; 3.5 mg/ml; C2 symmetry imposed

**Q.** With “wild-type ClbP (from UniProt Q0P7K6 1-504) (enzyme)” as the substance, how does the stoichiometry N read?
**A.** 2
